Article PMC13078783 (2026)

Tests used:
[1] = target: KLC1 TPR domain; experiment: FP
[2] = target: KLC2 TPR domain; experiment: FP
KLC2 TPR domain, sequence (chain, as listed by the source): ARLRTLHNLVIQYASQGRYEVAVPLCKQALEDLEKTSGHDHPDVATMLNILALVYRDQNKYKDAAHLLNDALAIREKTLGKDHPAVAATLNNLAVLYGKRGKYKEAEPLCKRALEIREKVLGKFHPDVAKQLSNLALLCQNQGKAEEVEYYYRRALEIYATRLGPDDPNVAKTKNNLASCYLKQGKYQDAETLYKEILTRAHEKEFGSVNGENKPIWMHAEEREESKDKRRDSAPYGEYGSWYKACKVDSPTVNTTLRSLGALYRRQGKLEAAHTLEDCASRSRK

KLC1 TPR domain, sequence (chain, as listed by the source): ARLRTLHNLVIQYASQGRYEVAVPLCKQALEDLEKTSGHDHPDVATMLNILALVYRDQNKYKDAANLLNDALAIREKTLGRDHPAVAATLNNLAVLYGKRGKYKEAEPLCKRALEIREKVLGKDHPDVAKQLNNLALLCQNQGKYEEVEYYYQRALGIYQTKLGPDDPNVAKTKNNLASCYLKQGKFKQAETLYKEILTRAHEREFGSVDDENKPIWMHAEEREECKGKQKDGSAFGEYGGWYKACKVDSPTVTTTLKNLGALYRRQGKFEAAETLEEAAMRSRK

Kd [1]: 830 nM
Kd [2]: 750 nM
Binder: {TAMRA}-STNLEWDDSAI-NH2 [SKIP W-acidic motif peptide]
